Assay results from ChEMBL document CHEMBL1671727, “Expression, purification, and characterization of Aspergillus fumigatus sterol 14-alpha demethylase (CYP51) isoenzymes A and B” (Antimicrob Agents Chemother, 2010).

Substrate: CC(C)=CCC[C@@H](C)[C@H]1CC[C@@]2(C)C3=C(CC[C@]12C)[C@@]1(C)CC[C@H](O)C(C)(C)[C@@H]1CC3
Assay: Activity of Candida albicans CYP51

B1: Lanosterol 14-alpha demethylase (Candida albicans SC5314) (protein)
chain: MAIVETVIDGINYFLSLSVTQQISILLGVPFVYNLVWQYLYSLRKDRAPLVFYWIPWFGSAASYGQQPYEFFESCRQKYGDVFSFMLLGKIMTVYLGPKGHEFVFNAKLSDVSAEDAYKHLTTPVFGKGVIYDCPNSRLMEQKKFAKFALTTDSFKRYVPKIREEILNYFVTDESFKLKEKTHGVANVMKTQPEITIFTASRSLFGDEMRRIFDRSFAQLYSDLDKGFTPINFVFPNLPLPHYWRRDAAQKKISATYMKEIKSRRERGDIDPNRDLIDSLLIHSTYKDGVKMTDQEIANLLIGILMGGQHTSASTSAWFLLHLGEKPHLQDVIYQEVVELLKEKGGDLNDLTYEDLQKLPSVNNTIKETLRMHMPLHSIFRKVTNPLRIPETNYIVPKGHYVLVSPGYAHTSERYFDNPEDFDPTRWDTAAAKANSVSFNSSDEVDYGFGKVSKGVSSPYLPFGGGRHRCIGEQFAYVQLGTILTTFVYNLRWTIDGYKVPDPDYSSMVVLPTEPAEIIWEKRETCMF
Km: 7.4 µM
